Experimental findings from article PMC2958096 are described below.

Where two headings read alike, the source gives them in different places.

The target in data set [1] is T1, SUD-MC (SARS-CoV, UniProt P0C6U8 1345-1538). Put plainly: EMSA. (In general: A gel shift assay detects complexes by their altered migration in electrophoresis.)
The target in data set [2] is T2, SUD-M (SARS-CoV, UniProt P0C6U8 1345-1469). Put plainly: EMSA.
Data set [3] concerns the target T1, SUD-MC. Put plainly: EMSA. This is another data set of the same source.
Data set [4] addresses T3, SUD-C (SARS-CoV, UniProt P0C6U8 1473-1538). The experiment in a line: EMSA.
Data set [5] addresses T2, SUD-M. The experiment in a line: EMSA. The source holds these as a separate data set.
The target in data set [6] is T1, SUD-MC. Put plainly: NMR chemical shift perturbation.
Data set [7] has as its target T2, SUD-M. Put plainly: NMR chemical shift perturbation.
Data set [8] deals with T3, SUD-C. Put plainly: NMR chemical shift perturbation.
For data set [9], the target named is T2, SUD-M.
For data set [10], the target named is T1, SUD-MC. Put plainly: NMR chemical shift perturbation. The source holds these as a separate data set.
Data set [11] addresses T2, SUD-M. The experiment in a line: EMSA. This is another data set of the same source.
Data set [12] concerns the target T3, SUD-C. The experiment in a line: NMR chemical shift perturbation. The source holds these as a separate data set.
Data set [13] has as its target T1, SUD-MC. The experiment in a line: NMR chemical shift perturbation. This is another data set of the same source.
The target of data set [14] is T1, SUD-MC. The experiment in a line: EMSA. The source holds these as a separate data set.

Turning to GGGAGGGAGG (ssRNA), the binding result in the data set with SUD-MC [1] and with SUD-M [2] was “binds” in each case. Consider ACUGACUGACUGACUGACUG (ssRNA) [(ACUG)5], for which the values for the binding result with SUD-MC [3], in the data set with SUD-C [4] and with SUD-M [5] were “no binding”, “no binding” and “binds”, respectively. In the case of GGAGGAGGAGGA (ssRNA) [(GGA)4], the binding result with SUD-MC [6] and in the data set with SUD-M [7] was “binds” in each case. For the molecule GGGGGGGGGG (ssRNA) [G10], in the data set with SUD-C [8], the binding result was “binds”.

For GUUCGUUUAG (ssRNA) [TRS(-)], the binding result with SUD-M [9] is “no binding”. For the molecule CUAAACGAAC (ssRNA) [TRS(+)], the figures for the binding result in the data set with SUD-M [9] and with SUD-MC [10] were “no binding” and “binds”, respectively. For GGGAGGGA (ssRNA), the binding result with SUD-M [11] is listed as “binds”. For the molecule AAAAAAAAAA (ssRNA) [A10], the binding result with SUD-C [12] and with SUD-MC [13] was “binds” throughout. Turning to GGGAGGGAGGGAGGGAGGGA (ssRNA) [(GGGA)5], the binding result with SUD-M [2] was “binds”; with SUD-C [4], “no binding”; with SUD-MC [14] it was “binds”.
